B1: HDV Ribozyme (parent)
chain: GGCCGGCAUGGUCCCAGCCUCCUCGCUGGCGCCGGCUGGGCAACAUUCCGAGGGGACCGUCCCCUCGGUAAUGGCGAAUGGGACCCA

The results in this text go back to the RNAGym collection of RNA variant scans (doi:10.7554/elife.80360).

Variants of B1 are the subject of this data set. Kind of data set: self-cleavage, relative activity (ratio to wild type); higher = more cleavage; co-transcriptional.
As for GGCCGGCAUGGUCCCAGCCUCCUCGCUGGCGCUGGCUGGGCAACAUUCCGAGAGGACCGUCCCCUCGGUAAUGGCGAAUGGGACCCA [C33U G53A], the self-cleavage was 0.95.

On to GGCCGGCAUGAUCCCAGCCUCCUCGCUGGCGCCGGCUGGGCAACAUUCCGAGGCGACCGUCCCCUCGGUAAUGGCGAAUGGGACCCA [G11A G54C], for which the self-cleavage turned out to be 0.479. Then GGCCGGCAUGGUCCCAGCCUACUCGCUGGCGCCGGCUGGGCAACAUUCCGAGGGGACCGUCCCCUCGGUAAUAGCGAAUGGGACCCA [C21A G73A], with 0.161; and GGCCGGCAUGGCCCCAGCCUCCUCGCUGGCGCCGGCUGGGCAACAAUCCGAGGGGACCGUCCCCUCGGUAAUGGCGAAUGGGACCCA [U12C U46A], with 0. Then GGCCGGCAUGGUCCCAGCCUCCUCGCUGGCGCCGGCUGGGCGACAUUCCGAGGGGACCGUCCCCUCGGUAAUGGCGAAUCGGACCCA [A42G G80C], with 0.364. Then GGCCGCCAUGGUCCCACCCUCCUCGCUGGCGCCGGCUGGGCAACAUUCCGAGGGGACCGUCCCCUCGGUAAUGGCGAAUGGGACCCA [G6C G17C], with 0; and GGCCGGCAUGGUCCCAGCCUCCUCGCUGGCGCCGGCAGGGCAACAUUCCGAGGGGACCGUCCCCUCGGUAAUGGCGAAUGGGUCCCA [U37A A83U], with 0.104; and GGCCGGCAUGGUCCCAGCCUCCUCACUGCCGCCGGCUGGGCAACAUUCCGAGGGGACCGUCCCCUCGGUAAUGGCGAAUGGGACCCA [G25A G29C], with 0.0583. Regarding GGCCGGCAUGGUCCCAGCCUCCUCGCUGGCGUCGGCUGGGCAACAUUCCGAGGGGACCGUCCCCUCGGUAAUGGCCAAUGGGACCCA [C32U G76C], the self-cleavage was found to be 0.854. Then GGCCGGCAUGGUCCCAAACUCCUCGCUGGCGCCGGCUGGGCAACAUUCCGAGGGGACCGUCCCCUCGGUAAUGGCGAAUGGGACCCA [G17A C18A], with 0.252; and GGCCGGCAUGGUCCCAGCCUCCUCGCUGGCGCCGGCUGGGCAACAAUCCGAGGGGAGCGUCCCCUCGGUAAUGGCGAAUGGGACCCA [U46A C57G], with 0.617. Then GGCCGGCAUGGUCCCAGCCUCCUCGCUGGCGCCGGCUGGGCACCAUUCCGAGGGGACCGUCCCCCCGGUAAUGGCGAAUGGGACCCA [A43C U65C], with 0.482.

GGCCGGCAUGGUCCCAGCCUCCUCGCUGGCGCCGGCUGGGCAAGAUUCCGAGGGGUCCGUCCCCUCGGUAAUGGCGAAUGGGACCCA [C44G A56U]: the self-cleavage is 0.734. Then GGCCGGCAUGGUCCCAGCCUCCUCGCUGGCGCCGGCUGGGCAACGUUCCGAGGGGACCGUCCCCACGGUAAUGGCGAAUGGGACCCA [A45G U65A], with 0.767; and GGCCGGCAUGGUCCCAGCCUCCUCUCUGGCGCCGGCUGGGCAACAUUCCGACGGGACCGUCCCCUCGGUAAUGGCGAAUGGGACCCA [G25U G52C], with 0.208; and GGCCGGCAUGGUCCCAGCCUCCUCGCUGGCGCCGGCUGGGCAACAUUCCGUGGGGACCGUCCCCUCGGUAAUGGCCAAUGGGACCCA [A51U G76C], with 1.23. Then GGCCGGCAUGGUCCCAGCCUCCUCACUGGCGCCGGCUGGGCAACAUUCCGAGGGGACCGUCCCCUCGGUAAAGGCGAAUGGGACCCA [G25A U72A], with 0.158. Then GGCCGGCAUGGUCCCAGCCUCCUCGCUGGUGCCGGCUGGUCAACAUUCCGAGGGGACCGUCCCCUCGGUAAUGGCGAAUGGGACCCA [C30U G40U], with 0.114. For the variant GGCCGGCAUGGUCCCAGCCUCCUCGCUGGCGCCGGCUGGGCAACAUUCCGAGGGGACCGUCCCCUCGGUAUUGACGAAUGGGACCCA [A71U G74A], the self-cleavage worked out at 0.519. Then GGCCGGCAUGGUCCCAGCCUCCUCGCUGGCGCCGGCUGGGCAACAUUCCGAGGGUACCGUCCACUCGGUAAUGGCGAAUGGGACCCA [G55U C63A], with 0.783; and GGCCGGCAUGGUCACAGCCUCCUCGCUGGCGCCGGCUGGGCAAAAUUCCGAGGGGACCGUCCCCUCGGUAAUGGCGAAUGGGACCCA [C14A C44A], with 0.246; and GGCCGGCAUGGUCCCAGCCUCCUCGCUAGCGCCGGCUGGGCAACAUUCCGAGGGGACCGUCCCCUAGGUAAUGGCGAAUGGGACCCA [G28A C66A], with 0.0811. Then GGCCGGCAUGGUCCCAGCCUCCUCGCUGGCGCCGGCUGGGCAACAUUCCGAGGGGACCGUCCCCUCGGUAAUGGUGAAUUGGACCCA [C75U G80U], with 0.178; and GGCCGGCAUGGUCCCAGCCUCCUCGCUGGCGCCGGCUGGGCAGCAUUCCGAGGGGACCGUGCCCUCGGUAAUGGCGAAUGGGACCCA [A43G C61G], with 0.739. Then GGCCGGCAUGGUCCCAGCCUCCUCGCUGGCGCCGGCUGGGCAACAUUCCGAGGGGACCGUCCCCUCGGGAAUGGCGACUGGGACCCA [U69G A78C], with 0.332; and GGCGGGCAUGGUCCCAGCCUCCUCGCUGGCGCCGGCUGGGCCACAUUCCGAGGGGACCGUCCCCUCGGUAAUGGCGAAUGGGACCCA [C4G A42C], with 0; and GGCCGGCAUGGUCCCAGCCUCCUCGCUGGCGCCGGCUGGGAAACAUUCCGAGGGGACCGUCCCCUAGGUAAUGGCGAAUGGGACCCA [C41A C66A], with 0.804.

In the case of GGCCGGCAUGGUCCCAGCCUCCUCGCUGGCGCCGCCUGGGCAACAUUCCGAGCGGACCGUCCCCUCGGUAAUGGCGAAUGGGACCCA [G35C G53C], the self-cleavage was 0.208.

As to GGCCGGCAUGGUCCCAGCAUCCUCGCUGGCGCCGGCUGGGCAACAUUCCGAGGGCACCGUCCCCUCGGUAAUGGCGAAUGGGACCCA [C19A G55C], the self-cleavage turned out to be 0.0489. On to GGCCGGCAUGGUCCCAGCCUCCUCGCUGGCGCCGGCUGGGCAACAUUCCGAGGGGACCGUCCCGUCGGUAAUGGCGAAUGGCACCCA [C64G G82C], for which the self-cleavage was 0.0811. As for GGCCGGCAUGGUCCCAGCCUCCUCGCUGGCGCCGGCUGGGCAACAUGCCGUGGGGACCGUCCCCUCGGUAAUGGCGAAUGGGACCCA [U47G A51U], the self-cleavage was determined as 1.2. On to GGCCGGCAUGGUCCGAGCCUCCUCGCUGGCGCCGGCUGGGCAACAUUCCGAAGGGACCGUCCCCUCGGUAAUGGCGAAUGGGACCCA [C15G G52A], for which the self-cleavage was 0.807.
